According to US20020164716A1 (GENETICS INSTITUTE, published 2002):

T1: TNF-R1-DD ligand protein encoded by clone 1TU (Homo sapiens (Human), UniProt Q8TEL6 488-797)
T1 construct: partial clone
T1 sequence: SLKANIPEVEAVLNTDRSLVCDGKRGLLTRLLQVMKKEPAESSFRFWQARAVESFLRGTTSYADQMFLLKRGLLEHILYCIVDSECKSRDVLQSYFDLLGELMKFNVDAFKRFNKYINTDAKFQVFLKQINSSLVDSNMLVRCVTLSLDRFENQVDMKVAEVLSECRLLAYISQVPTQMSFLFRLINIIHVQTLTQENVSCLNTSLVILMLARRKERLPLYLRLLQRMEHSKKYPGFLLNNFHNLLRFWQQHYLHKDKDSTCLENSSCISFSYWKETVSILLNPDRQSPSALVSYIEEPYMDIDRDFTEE

T2: TNF-R1-DD ligand protein encoded by clone 3DD (Homo sapiens (Human), UniProt Q9H3U1 807-944)
T2 construct: partial clone
T2 sequence: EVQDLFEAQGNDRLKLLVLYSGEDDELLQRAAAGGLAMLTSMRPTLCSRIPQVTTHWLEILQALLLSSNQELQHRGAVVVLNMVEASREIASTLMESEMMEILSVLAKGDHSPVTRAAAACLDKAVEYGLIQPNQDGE

B1: LexA-TNF-R1-DD fusion protein (death domain of the P55 type 1 TNF receptor) (receptor, UniProt P19438 355-442, looked up)
chain: DPATLYAVVENVPPLRWKEFVRRLGLSDHEIDRLELQNGRCLREAQYSMLATWRRRTPRREATLELLGRVLRDMDLLGCLEDIEEALC
notes: range 326-413; also called TNF-RDD; TNF-R death domain; not shown: LexA, bait fusion partner from plasmid pEG202

Experiments:
[1] = target: T1, TNF-R1-DD ligand protein encoded by …; experiment: yeast interaction trap, wild type against death domain mutants
[2] = target: T3, protein encoded by clone 15TU (Homo sapiens (Human), UniProt Q8WXG6 1329-1647); experiment: as above
T3 construct: The limits 289-607 are printed as approximate

[3] = target: T2, TNF-R1-DD ligand protein encoded by …; experiment: yeast interaction trap, panel of baits
From the text: (§1) A yeast genetic selection method, the “interaction trap” [Gyuris et al, Cell 75:791-803, 1993, which is incorporated herein by reference], was used to screen WI38 cell cDNA libraries (preparation, see below) for proteins that interact with the death domain of the P55 type 1 TNF receptor (TNF-R1-DD). A polynucleotide encoding amino acids 326 to 413 of the P55 type TNF receptor, TNF-R1-DD, was obtained via the polymerase chain reaction (PCR) using a grafting method. This TNF-R1-DD DNA was then cloned into pEG202 by BamHI and SalI sites, generating the bait plasmid, pEG202-TNF-R1-DD. This plasmid contains the HIS3 selectable marker, and expression of the bait, the LexA-TNF-R1-DD fusion protein, is from the strong constitutive ADH1 promoter. To create the reporter strain carrying the bait protein, yeast strain EGY48, containing the reporter sequence LexAop-Leu2 in place of the chromosomal LEU2, was transformed with pEG202-TNF-R1-DD and pSH18-34 (Ura+), which carries another reporter sequence, LexAop-lacZ. For screening cDNAs encoding proteins that interact with TNF-R1-DD, the expression vector pJG4-5 (TRP1), containing the WI38 cell cDNA library (see below for the cDNA library construction), was transformed into the above strain (EGY48/pEG202-TNF-R1-DD/pSH18-34) according to the method described by Gietz et al., Nucleic Acids Res., 20:1425 (1992).
(§2) The clones “2DD,” “3DD” and “20DD” were chosen for further analysis. Library vector pJG4-5 containing these clones sequences were rescued from yeast by transforming the total yeast DNAs into the E. coli strain KC8 and selecting for growth on Trp-ampicillin plates.

[4] = target: T4, TNF-R1-DD ligand protein encoded by clone 2DD (Homo sapiens (Human), UniProt Q8WXG6 1217-1647); experiment: yeast interaction trap, panel of baits
T4 construct: partial clone of a longer protein
From the text: as §1, §2

[5] = target: T5, TNF-R1-DD ligand protein encoded by clone 27TU (Homo sapiens (Human), UniProt Q8WXG6 1002-1647); experiment: yeast interaction trap, panel of baits
T5 construct: partial clone
From the text: (§3) The ability of these clones to bind the TNF-R death domain was compared to their binding to the intracellular domain of the second TNF-R (TNF-R p75IC), the entire intracellular domain of TNF-R (TNF-R p55IC), the death domain of the fas antigen (which shares 28% identity with TNF-R-DD) (FasDD), the Drosophila transcription factor bicoid, and a region of the IL-1 receptor known to be critical for signalling (IL-1R₄₇₇₋₅₂₇).

[6] = target: T1, TNF-R1-DD ligand protein encoded by …; experiment: yeast interaction trap, panel of baits
From the text: as §3

[7] = target: T3, protein encoded by clone 15TU; experiment: yeast interaction trap, panel of baits
From the text: as §3

[8] = target: T5, TNF-R1-DD ligand protein encoded by …; experiment: yeast interaction trap, death domain mutants
Method: (§4) The ability of each clone to interact with four single-site mutations in the TNF-R death domain (each known to abolish signalling) was measured.

[9] = target: T1, TNF-R1-DD ligand protein encoded by …; experiment: yeast interaction trap, death domain mutants
Method: as §4

[10] = target: T3, protein encoded by clone 15TU; experiment: yeast interaction trap, death domain mutants
Method: as §4

[11] = target: B1; experiment: yeast interaction trap, panel of baits
From the text: as §1, §2

MBP protein = MBP protein (UniProt P0AEX9 27-392 = MBP); experiment: pull-down on glutathione beads, Western blot with anti-MBP antibody
Method: The reaction ws performed at 4° C. for 2 hours and centrifuged to remove unbound fraction (Unbound). The beads were then washed with 500 μl binding buffer four times and resuspended into SDS-sample buffer (Bound).

T5 sequence (Q8WXG6 other isoform, or with tags, fused parts or gaps): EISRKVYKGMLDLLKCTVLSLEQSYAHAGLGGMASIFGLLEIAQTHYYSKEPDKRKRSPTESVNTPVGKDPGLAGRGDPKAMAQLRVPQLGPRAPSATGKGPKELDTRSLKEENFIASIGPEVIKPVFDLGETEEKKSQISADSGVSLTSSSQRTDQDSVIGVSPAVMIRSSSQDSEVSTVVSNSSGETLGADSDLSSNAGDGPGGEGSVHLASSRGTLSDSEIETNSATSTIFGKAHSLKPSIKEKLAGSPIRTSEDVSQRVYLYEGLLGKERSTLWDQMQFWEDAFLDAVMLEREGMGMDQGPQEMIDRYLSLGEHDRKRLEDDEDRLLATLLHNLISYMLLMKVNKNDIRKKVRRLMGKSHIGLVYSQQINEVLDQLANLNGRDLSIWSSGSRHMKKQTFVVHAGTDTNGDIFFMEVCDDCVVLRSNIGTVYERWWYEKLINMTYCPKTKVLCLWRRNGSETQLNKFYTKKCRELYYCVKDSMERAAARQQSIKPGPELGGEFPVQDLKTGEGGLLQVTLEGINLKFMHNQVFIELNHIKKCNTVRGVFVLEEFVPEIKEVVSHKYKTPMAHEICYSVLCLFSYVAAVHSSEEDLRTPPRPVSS
T3 sequence (Q8WXG6 1329-1647): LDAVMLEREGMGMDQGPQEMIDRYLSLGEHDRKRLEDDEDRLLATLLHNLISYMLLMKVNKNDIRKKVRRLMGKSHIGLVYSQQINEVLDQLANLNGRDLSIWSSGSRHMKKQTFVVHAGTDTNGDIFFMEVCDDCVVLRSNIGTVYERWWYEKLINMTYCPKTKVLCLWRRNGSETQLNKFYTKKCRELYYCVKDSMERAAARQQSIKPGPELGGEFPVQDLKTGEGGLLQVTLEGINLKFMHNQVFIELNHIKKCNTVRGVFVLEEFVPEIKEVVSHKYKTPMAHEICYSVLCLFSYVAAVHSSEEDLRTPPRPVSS
T4 sequence (Q8WXG6 other isoform, or with tags, fused parts or gaps): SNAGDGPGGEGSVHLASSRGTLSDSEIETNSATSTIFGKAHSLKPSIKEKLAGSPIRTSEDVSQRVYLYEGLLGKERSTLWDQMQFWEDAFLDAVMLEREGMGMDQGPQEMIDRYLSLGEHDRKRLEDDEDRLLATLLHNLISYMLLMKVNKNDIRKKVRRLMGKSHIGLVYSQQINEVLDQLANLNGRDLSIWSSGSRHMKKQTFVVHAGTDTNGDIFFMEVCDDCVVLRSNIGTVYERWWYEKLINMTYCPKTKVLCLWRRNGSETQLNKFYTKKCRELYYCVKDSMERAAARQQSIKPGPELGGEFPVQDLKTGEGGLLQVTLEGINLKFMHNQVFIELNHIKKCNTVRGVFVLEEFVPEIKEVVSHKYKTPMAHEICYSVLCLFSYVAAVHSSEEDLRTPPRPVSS

Binder | binding result [5] | binding result [8] | binding result [9] | binding result [10] | also measured
B1 | binds |  |  |  | binding result [1]: binds; binding result [2]: binds; binding result [3]: binds; binding result [4]: binds
entire intracellular domain of TNF-R (TNF-R p55IC) (receptor, UniProt P19438 233-455, looked up, domain: entire intracellular domain; also called TNF-R p55JC; cytoplasmic domain of the p55 TNF-R) MYRYQRWKSKLYSIVCGKSTPEKEGELEGTTTKPLAPNPSFSPTPGFTPTLGFSPVPSSTFTSSSTYTPGDCPNFAAPRREVAPPYQGADPILATALASDPIPNPLQKWEDSAHKPQSLDTDDPATLYAVVENVPPLRWKEFVRRLGLSDHEIDRLELQNGRCLREAQYSMLATWRRRTPRREATLELLGRVLRDMDLLGCLEDIEEALCGPAALPPAPSLLR | binds |  |  |  | binding result [6]: binds; binding result [7]: binds
TNF-R death domain mutant F345A (receptor, UniProt P19438 355-442, looked up, range 326-413; Numbering as printed, see the note of m7; not shown: LexA, bait fusion partner from plasmid pEG202) DPATLYAVVENVPPLRWKEAVRRLGLSDHEIDRLELQNGRCLREAQYSMLATWRRRTPRREATLELLGRVLRDMDLLGCLEDIEEALC |  | binds | binds | binds | 
TNF-R death domain mutant L351A (receptor, UniProt P19438 355-442, looked up, range 326-413; Numbering as printed, see the note of m7; not shown: LexA, bait fusion partner from plasmid pEG202) DPATLYAVVENVPPLRWKEFVRRLGASDHEIDRLELQNGRCLREAQYSMLATWRRRTPRREATLELLGRVLRDMDLLGCLEDIEEALC |  | binds | binds | binds | 
TNF-R death domain mutant W378A (receptor, UniProt P19438 355-442, looked up, range 326-413; Numbering as printed, see the note of m7; not shown: LexA, bait fusion partner from plasmid pEG202) DPATLYAVVENVPPLRWKEFVRRLGLSDHEIDRLELQNGRCLREAQYSMLATARRRTPRREATLELLGRVLRDMDLLGCLEDIEEALC |  | binds | binds | binds | 
TNF-R death domain mutant I408A (receptor, UniProt P19438 355-442, looked up, range 326-413; Numbering as printed, see the note of m7; not shown: LexA, bait fusion partner from plasmid pEG202) DPATLYAVVENVPPLRWKEFVRRLGLSDHEIDRLELQNGRCLREAQYSMLATWRRRTPRREATLELLGRVLRDMDLLGCLEDAEEALC |  | binds | binds | binds | 
TNF-R1-DD ligand protein encoded by clone 20DD (ligand, not shown: large carriers) EKPLHALLHGRGVCLNEKSYREQVKIERDSREHEEPTTSEMAEETYSPKIFRPKHTRISELKAEAVKKDRRKKLTQSKFVGGAENTAHPRIISEPEMRQESEQGPCRRHMEASLQELKASPRMVPRAVYLPNCDRKGFYKRKQCKPSRGRKRGICWCVDKYGMKLPGMEYVDGDFQCHTFDSSNVE |  |  |  |  | binding result [11]: binds
death domain of the fas antigen (FasDD) (receptor, UniProt P25445 230-314, looked up, domain: death domain) SKYITTIAGVMTLSQVKGFVRKNGVNEAKIDEIKNDNVQDTAEQKVQLLRNWHQLHGKKEAYDTLIKDLKKANLCTLAEKIQTII | no binding |  |  |  | binding result [6]: no binding; binding result [7]: no binding
Drosophila transcription factor bicoid (other, UniProt P09081-2 2-160, looked up) AQPPPDQNFYHHPLPHTHTHPHPHSHPHPHSHPHPHHQHPQLQLPPQFRNPFDLLFDERTGAINYNYIRPYLPNQMPKPEELPDSLVMRRPRRTRTTFTSSQIAELEQHFLQGRYLTAPRLADLSAKLALGTAQVKIWFKNRRRRHKIQSDQHKDQSYE | no binding |  |  |  | binding result [7]: no binding
intracellular domain of the second TNF-R (TNF-R p75IC) (receptor, UniProt P20333 288-461, looked up, domain: intracellular domain; also called TNF-R p75JC) KKKPLCLQREAKVPHLPADKARGTQGPEQQHLLITAPSSSSSSLESSASALDRRAPTRNQPQAPGVEASGAGEARASTGSSDSSPGGHGTQVNVTCIVNVCSSSDHSSQCSSQASSTMGDTDSSPSESPKDEQVPFSKEECAFRSQLETPETLLGSTEEKPLPLGVPDAGMKPS | no binding |  |  |  | binding result [6]: no binding
TNF-R1-DD expressed as a GST fusion protein (receptor, range 326-413; Purified, bacterially expressed, held on glutathione beads; Numbering: see the note of m7; also called GST-TNF-R1-DD; GST/TNF-R1-DD; not shown: glutathione-S-transferase (GST) from a pGEX vector (Pharmacia)) DPATLYAVVENVPPLRWKEFVRRLGLSDHEIDRLELQNGRCLREAQYSMLATWRRRTPRREATLELLGRVLRDMDLLGCLEDIEEALC |  |  |  |  | binding result (MBP protein): no binding (tested: 3 µg)
